Data reported in publication PMC7531523.

Tests used:
[1] = biological target: epOX40.24.1 scFv displayed on yeast (human); assay: flow cytometry on cells
[2] = biological target: epOX40.24.2 scFv displayed on yeast (human); assay: flow cytometry on cells
[3] = biological target: rOX40.24.1 scFv displayed on yeast (human); assay: flow cytometry on cells
[4] = biological target: rOX40.24.2 scFv displayed on yeast (human); assay: flow cytometry on cells
[5] = biological target: epOX40.24.1 full-length human IgG1 (human); assay: BLI
[6] = biological target: epOX40.24.2 full-length human IgG1 (human); assay: BLI
[7] = biological target: rOX40.24.2 full-length human IgG1 (human); assay: BLI

Kd [1]: 3.8 nM
Kd [2]: 7.9 nM
Kd [3]: 2.2 nM
Kd [4]: 2 nM
Kd [5]: 14.4 nM
Kd [6]: 3.8 nM
Kd [7]: 6.9 nM
B1: tumor necrosis factor receptor superfamily member 4 (OX40), extracellular, soluble portion (domain or fragment)
chain: LHCVGDTYPSNDRCCHECRPGNGMVSRCSRSQNTVCRPCGPGFYNDVVSSKPCKPCTWCNLRSGSERKQLCTATQDTVCRCRAGTQPLDSYKPGVDCAPCPPGHFSPGDNQACKPWTNCTLAGKHTLQPASNSSDAICEDRDPPATQPQETQGPPARPITVQPTEAWPRTSQGPSTRPVEVPGGRA
modifications: biotin (Sulfo-NHS-LC-biotin) for staining of yeast; not stated for BLI and SPR
